Reference: paper PMC8361300

Key:
[1] = target: Nucleobindin-2 from Gallus gallus (ggNucb2) (Gallus gallus); assay: SAXS; protein 3.5 mg/ml with 5 mM EDTA, 10 mM Ca2+, 10 mM Mg2+ or 100 µM Zn2+; molecular mass from I(0) against BSA
[2] = target: Nucleobindin-2 from Gallus gallus (ggNucb2) (Gallus gallus); assay: AUC; sedimentation velocity, 50,000 rpm, 20 °C, buffer C (20 mM Tris-HCl, 150 mM NaCl, pH 7.5) with 100 µM ZnCl2 (also 200 and 300 µM); protein 0.5, 0.75 and 1.0 mg/ml; c(s) model
[3] = target: Nucleobindin-2 from Gallus gallus (Gallus gallus); assay: ITC; Ca2+ (4000 µM) titrated into ggNucb2 (50 µM), 25 °C, 20 mM HEPES, 150 mM NaCl, pH 7.5; broad range fit to the AA BB model with ligand-mediated dimerization ((A + A) + B + B to (AA)BB) in SEDPHAT; constant of the step monomers to dimer
[4] = target: Nucleobindin-2 from Homo sapiens (hsNucb2) (Homo sapiens); assay: SAXS; protein 3.5 mg/ml with 5 mM EDTA, 10 mM Ca2+, 10 mM Mg2+ or 100 µM Zn2+; molecular mass from I(0) against BSA
[5] = target: Nucleobindin-2 from Homo sapiens (hsNucb2) (Homo sapiens); assay: AUC; sedimentation velocity, 50,000 rpm, 20 °C, buffer C (20 mM Tris-HCl, 150 mM NaCl, pH 7.5) with 5 mM EDTA (apo); protein 0.5, 0.75 and 1.0 mg/ml; c(s) model

Nucleobindin-2 from Gallus gallus (ggNucb2) (natural protein)
stoichiometry N [1]: 2
stoichiometry N [2]: > 2

Nucleobindin-2 from Gallus gallus (natural protein)
Kd [3]: 16 nM

Nucleobindin-2 from Homo sapiens (hsNucb2) (natural protein)
stoichiometry N [4]: 2
stoichiometry N [5]: 2
